Measurements as given in patent publication US20210324080A1 (JIANGSU HUAIYU PHARMACEUTICAL, published 2021).
Values belong to the binder of their own block, whether it stands above or below them.

Assays:
[1] = biological target: T1, CTLA-4 on human T lymphocytes (PBMC, CD3+ T cells) (human, UniProt P16410 36-223); test: cell-based or functional assay
T1 sequence (looked up): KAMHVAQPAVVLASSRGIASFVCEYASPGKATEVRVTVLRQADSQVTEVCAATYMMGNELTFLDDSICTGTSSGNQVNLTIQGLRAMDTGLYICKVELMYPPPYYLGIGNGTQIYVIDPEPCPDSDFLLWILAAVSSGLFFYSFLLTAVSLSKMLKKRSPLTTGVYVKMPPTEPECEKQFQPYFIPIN

[2] = biological target: T2, human CTLA-4 (Y201V), full length, on transfected cells (human, UniProt P16410 36-223); test: FACS, human CTLA-4 expressing cells
T2 construct: whole, on cells; also called hCTLA-4; HEK293-hCTLA-4 (Y201V)
T2 sequence (looked up): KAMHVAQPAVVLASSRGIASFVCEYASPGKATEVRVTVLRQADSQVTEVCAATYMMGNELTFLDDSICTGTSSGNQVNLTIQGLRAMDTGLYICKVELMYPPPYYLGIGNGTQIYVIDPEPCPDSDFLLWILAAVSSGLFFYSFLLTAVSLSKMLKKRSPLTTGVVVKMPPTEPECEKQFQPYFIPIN

[3] = biological target: T3, CTLA-4-hFc (immunogen A; hFc-labeled CTLA-4 extracellular domain protein) (human, UniProt P16410 36-161); test: blocking assay, CTLA-4 protein, competitor B7.2
T3 construct: range 36-161; Made in HEK293 cells, purified on protein A; also called CLTA-4-hFc; CTLA-4 protein; not shown: human IgG Fc fragment (hFc) of the pCpC vector
T3 sequence (looked up): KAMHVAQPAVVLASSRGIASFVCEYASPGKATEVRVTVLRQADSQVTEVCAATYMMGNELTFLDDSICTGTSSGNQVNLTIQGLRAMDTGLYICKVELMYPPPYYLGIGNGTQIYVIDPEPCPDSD
Experimental: (§1) CTLA-4 extracellular domain protein (CTLA-4-hFc) was diluted with PBS to a final concentration of 1.0 μg/mL, and then added to a 96-well ELISA plate as 100 μl per well. The plate was covered with a plastic film and incubated overnight at 4° C. The plate was washed twice with plate washing solution [PBS containing 0.01% (v/v) Tween 20] on the next day, and added with blocking solution [PBS containing 0.01% (v/v) Tween 20 and 1% (w/w) BSA] and blocked at room temperature for 2 hours. […] After 2 hours, the plate was washed 3 times with a plate washing solution [PBS containing 0.01% (v/v) Tween 20]. HRP (horseradish peroxidase) labeled avidin diluent (purchased from Sigma) was added 100 microliters per well, and after the plate was incubated for 2 hours at 37° C., it was washed with plate washing solution [PBS containing 0.01% (v/v) Tween 20] for 3 times. […] TMB substrate was added to each well. After incubated at room temperature for 30 minutes, the plate was added with […] stop solution (1.0N HCl) to each well. An ELISA plate reader (SpectraMax 384plus, Molecular Device) was used to read the A450 nm value.

[4] = biological target: T4, recombinant His-labeled hCTLA-4 ECD protein (human, UniProt P16410 36-161); test: SPR Biacore T200, antibody captured by anti-human Fc, 1:1 model
T4 construct: extracellular domain; also called human CTLA-4 ECD; not shown: His label
T4 sequence (looked up): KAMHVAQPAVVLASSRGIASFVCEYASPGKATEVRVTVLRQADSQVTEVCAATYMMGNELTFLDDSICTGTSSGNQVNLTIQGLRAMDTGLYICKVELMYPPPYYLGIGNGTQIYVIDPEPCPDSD
Experimental: Anti-human Fc IgG was fixed on flow cell 1 and 2. HBS-EP+ (10 mmol/L HEPES, 150 mmol/L NaCl, 3 mM EDTA, 0.05% P20, pH 7.4) was used as the running buffer, and anti-human Fc IgG was fixed using the fixing wizard template. The flow cells 1 and 2 connected in series with S CM5 sensor chip were activated with freshly mixed 50 mmol/L NHS and 200 mmol/L EDC. Anti-human Fc IgG was diluted to […] with 10 mmol/L NaAC (pH 4.5) and injected into activated flow cells 1 and 2. The remaining active coupling sites were blocked with 1 mol/L ethanolamine.
The recombinant His-labeled hCTLA-4 ECD protein was diluted to 50 nmol/L, and then serially diluted 4 times with HBS-EP+ buffer at a 2-fold ratio. […] Each antibody was injected into the CM5 sensor flow cell 2 at a flow rate of 10 μL/min to achieve a response of 230 RU. Then the prepared His-labeled hCTLA-4ECD protein was injected into flow cells 1 and 2 at a flow rate of 30 μL/min for 180 seconds. The buffer flow was maintained for 400 seconds for dissociation measurement (30 μL/min). To remove the tested antibody from the surface, 10 mmol/L glycine-HCl pH1.5 was injected for 20 seconds (30 μL/min). Flow cell 1 was used as a reference flow cell. The above steps were repeated for each concentration of serially diluted His-labeled CTLA-4ECD protein. The KD value of each antibody was evaluated using Biacore T200 evaluation software 1.0, and a 1:1 binding model was used to fit the data.

[5] = biological target: T5, monkey CTLA-4, full length, on transfected HEK293 cells (monkey); test: FACS, monkey CTLA-4 expressing cells
T5 construct: whole, on cells; also called cCTLA-4; HEK293-cCTLA-4
Description: (§2) The pIRES plasmid with the monkey-derived CTLA-4 full-length gene was transfected into the HEK293 cell line to construct a HEK293 stable cell line containing monkey CTLA-4 (herein referred to as HEK293-cCTLA-4 stable cell line), wherein the database accession number of the monkey CTLA-4 nucleotide sequence is XM_005574014.1. The HEK293-hCTLA-4 stable cell line and HEK293-cCTLA-4 stable cell line were expanded in a T-75 cell culture flask to a 90% confluence. The medium was aspirated, and the cells were washed with HBSS buffer (Hanks Balanced Salt Solution, purchased from Invitrogen) twice, then treated with an enzyme-free cell dissociation fluid (Versene solution, purchased from Life technology) and the cells were collected. The cells were washed with HBSS buffer twice. After counted, the cells were diluted with HBSS buffer to 2×10⁶ cells per ml, added with 1% goat serum blocking solution, wherein the percentage was the mass percantage. Cells were incubated on ice for 30 minutes, then washed twice with HBSS buffer by centrifugation. The collected cells were suspended in the FACS buffer (HBSS containing 1% BSA, wherein the percentage was the mass percantage) to 2×10⁶ cells/ml, added as 100 microliters per well to a 96-well FACS reaction plate, added with 100 microliters per well of the purified CTLA-4 antibody sample to be tested, incubated on ice for 2 hours. The plate was washed twice with the FACS buffer by centrifugation, added with 100 microliters of fluorescent (Alexa 488)-labeled secondary antibodies (purchased from Invitrogen) per well, and incubated on ice for 1 hour. The plate was washed 3 times with FACS buffer by centrifugation, added with 100 μl fixative solution [4% (v/v) Paraformaldehyde] per well to suspend the cells. 10 minutes later, it was washed 2 times with FACS buffer by centrifugation. The cells were suspended with 100 microliters of FACS buffer, FACS (FACS Calibur, purchased from BD) was used for detection and the results were analyzed.

[6] = biological target: T3, CTLA-4-hFc (immunogen A; hFc-labeled …); test: ELISA, coated CTLA-4-hFc, competitor biotin-B7.2-hFc
Experimental: as §1

[7] = biological target: T3, CTLA-4-hFc (immunogen A; hFc-labeled …); test: ELISA, coated CTLA-4-hFc, competitor biotin-B7.1-hFc
Experimental: as §1

[8] = biological target: T2, human CTLA-4 (Y201V), full length, on …; test: FACS, CHOK1-hCTLA-4 cells
[9] = biological target: T5, monkey CTLA-4, full length, on …; test: FACS, 293F-cCTLA-4 cells
Description: as §2

[10] = biological target: T3, CTLA-4-hFc (immunogen A; hFc-labeled …); test: competition ELISA: CTLA-4-hFc coated, antibody titrated, blocked ligand biotin-labeled B7.1-hFc, HRP-avidin, A450, inhibition (%)
Experimental: as §1

[11] = biological target: T3, CTLA-4-hFc (immunogen A; hFc-labeled …); test: competition ELISA: CTLA-4-hFc coated, antibody titrated, blocked ligand biotin-labeled B7.2-hFc, HRP-avidin, A450, inhibition (%)
Experimental: as §1

IL-2 secretion, pg/ml, at 0.13 ug/ml, N = 1 [1]: 1570 pg/mL
IL-2 secretion, pg/ml, at 0.13 ug/ml, N = 2 [1]: 1450 pg/mL
IL-2 secretion, pg/ml, at 0.37 ug/ml, N = 1 [1]: 2480 pg/mL
IL-2 secretion, pg/ml, at 0.37 ug/ml, N = 2 [1]: 1860 pg/mL
IL-2 secretion, pg/ml, at 1.1 ug/ml, N = 1 [1]: 3460 pg/mL
IL-2 secretion, pg/ml, at 1.1 ug/ml, N = 2 [1]: 2560 pg/mL
IL-2 secretion, pg/ml, at 3.3 ug/ml, N = 1 [1]: 4240 pg/mL
IL-2 secretion, pg/ml, at 3.3 ug/ml, N = 2 [1]: 4200 pg/mL
IL-2 secretion, pg/ml, at 10 ug/ml, N = 1 [1]: 6650 pg/mL
IL-2 secretion, pg/ml, at 10 ug/ml, N = 2 [1]: 5210 pg/mL
IL-2 secretion, pg/ml, at 30 ug/ml, N = 1 [1]: 7650 pg/mL
IL-2 secretion, pg/ml, at 30 ug/ml, N = 2 [1]: 8210 pg/mL
MFI at 0.000128 nM [2]: 3
MFI at 0.0128 nM [2]: 31
MFI at 0.064 nM [2]: 85
MFI at 0.32 nM [2]: 229
MFI at 1.6 nM [2]: 491
MFI at 8 nM [2]: 727
MFI at 40 nM [2]: 902
MFI at 200 nM [2]: 886
% Block at 0.000128 nM [3]: 0%
% Block at 0.0128 nM [3]: 26.3%
% Block at 0.064 nM [3]: 42.8%
% Block at 0.32 nM [3]: 82.3%
% Block at 1.6 nM [3]: 98.7%
% Block at 8 nM [3]: 99%
% Block at 40 nM [3]: 99%
% Block at 200 nM [3]: 99.1%
Kd [4]: 3.5 nM
koff [4]: 0.00151 s⁻¹
kon [4]: 431000 M⁻¹ s⁻¹
MFI at 0.000128 nM [5]: 2
MFI at 0.0128 nM [5]: 36
MFI at 0.064 nM [5]: 97
MFI at 0.32 nM [5]: 270
MFI at 1.6 nM [5]: 504
MFI at 8 nM [5]: 757
MFI at 40 nM [5]: 810
MFI at 200 nM [5]: 784
B1: 97B8E1 fully human CTLA-4 antibody (human IgG1, kappa) (antibody, V domains shown)
VH: QVQLVESGGGVVQPGRSLRLSCAASGFTFSSYVMHWVRQAPGKGLEWVAVIWSDGRNKYYTDSVKGRFTISRDNSKNTLYLQMSSLRAEDTAVYYCARSGIALAGNAFDIWGQGTMVTVSS
VL: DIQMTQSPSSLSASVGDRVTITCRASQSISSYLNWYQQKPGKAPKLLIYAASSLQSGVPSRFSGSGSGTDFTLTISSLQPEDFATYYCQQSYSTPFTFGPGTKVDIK
notes: also called mAb50; mAb050

Inhibition rate (%) at 0.00091 nM [6]: 0%
Inhibition rate (%) at 0.091 nM [6]: 5.3%
Inhibition rate (%) at 0.274 nM [6]: 26.4%
Inhibition rate (%) at 0.823 nM [6]: 53.3%
Inhibition rate (%) at 2.5 nM [6]: 66.6%
Inhibition rate (%) at 7.4 nM [6]: 76.6%
Inhibition rate (%) at 22.2 nM [6]: 84.6%
Inhibition rate (%) at 66.7 nM [6]: 88.7%
Inhibition rate (%) at 0.00091 nM [7]: 0%
Inhibition rate (%) at 0.091 nM [7]: 12.7%
Inhibition rate (%) at 0.274 nM [7]: 40%
Inhibition rate (%) at 0.823 nM [7]: 63.1%
Inhibition rate (%) at 2.5 nM [7]: 75.2%
Inhibition rate (%) at 7.4 nM [7]: 80.7%
Inhibition rate (%) at 22.2 nM [7]: 87.5%
Inhibition rate (%) at 66.7 nM [7]: 89.7%
MFI at 0.07 nM [8]: 43.3
MFI at 0.67 nM [8]: 146
MFI at 6.67 nM [8]: 403
MFI at 66.67 nM [8]: 449
MFI at 0.000128 nM [9]: 2.4
MFI at 0.0128 nM [9]: 23
MFI at 0.064 nM [9]: 68.6
MFI at 0.32 nM [9]: 219
MFI at 1.6 nM [9]: 421
MFI at 8 nM [9]: 619
MFI at 40 nM [9]: 626
MFI at 200 nM [9]: 643
IC50 (read off the curve) [10]: ~0.3 nM
IC50 (read off the curve) [11]: ~0.5 nM
B2: 40C4C6 (chimeric antibody purified from hybridoma supernatant) (antibody, V domains shown)
VH: QVQLVESGGGVVQPGRSLRLSCAASGFTFSSYGMHWVRQAPGKGLEWVAVIWYDGRNKYYADSVKGRFTISRDNSKNTLYLQMNSLRAEDTAVYYCARASGSYSYYFDYWGQGTLVTVSS
VL: DIQMTQSPSSLSASVGGRVTITCRASQSISSFLNWYQHELGKAPKLLIYGASSLQSGVPSRFSGSGSGTDFTLTISSLQPEDFATYYCQQTYSTPFTFGPGTKVDIK
notes: also called mAb09; mAb009
